For two molecules, Kd results are on record in patent US20190323012, “TNF-Alpha-Binding Aptamer, And Therapeutic Use For Same” (BIOIS CO., LTD., published 2019).

Broadly, the Kd is the free concentration of one partner at which half of the binding sites on the other are occupied at equilibrium, for simple one-to-one binding.

In data set [1] the target is T1, TNF-alpha (Homo sapiens, UniProt P01375 P01375:77-233). As to the kind of experiment: EMSA; 30 mM Tris-HCl pH 7.5, 150 mM NaCl, 1.5 mM MgCl2, 2 mM DTT, tRNA, room temperature; radiolabeled RNA 50 pM. Particulars: tags: recombinant human TNF-alpha (Sigma-Aldrich; biotinylated for SELEX); chain copies: 3. The protocol:
The single-stranded nucleic acids (50 pM) binding to TNF-α, selected in <Example 2> and labeled with radioisotopes, were reacted with TNF-α protein in a manner in which the amount of TNF-α protein was increased (ranging from 0 to 320 nM). Here, the total amount of the aptamer, TNF-α protein, binding buffer (30 mM Tris-HCl (pH 7.5), 150 mM NaCl, 1.5 mM MgCl₂, and 2 mM DTT), and […] tRNA was adjusted to 40 μL, followed by binding at room temperature for 30 min. 6×BPB was added thereto, after which electrophoresis at 4° C. and 120 V using a 6% native gel (6% polyacrylamide, 1×TBE, 10 mM MgCl₂, 2% glycerol), exposure to an X-ray film and development were performed. The dissociation constant Kd was determined by calculating the amount of the RNA aptamer binding to TNF-α relative to the total RNA aptamer.
The 4% non-denatured acrylamide gel images of the TNF-α-bound RNA aptamer (C) and the TNF-α-unbound RNA aptamer (F), resulting from reacting the radioisotope-labeled 50 pM RNA aptamer ATK001 (a) and 50 pM RNA aptamer ATK007 (b) with TNF-α in a manner in which the amount of TNF-α was increased (ranging from 0 to 320 nM), are shown in a and b of FIG. 4. The percentage of RNA binding to TNF-α was determined and is graphed in c of FIG. 4.
For orientation: A gel shift assay detects complexes by their altered migration in electrophoresis.

The target of data set [2] is T1, TNF-alpha. As to the kind of experiment: SPR; range given for ATK001 and ATK007 together; TNF-alpha immobilized on CM5, HBS. The conditions noted are these: tags: recombinant human TNF-alpha (Sigma-Aldrich; biotinylated for SELEX); chain copies: 3. As for the experimental part:
SPR (Surface Plasmon Resonance) analysis was performed using a Biacore2000 (BIACORE, USA). A mixture of NHS (0.1 M N-hydroxysuccinimide) and DEC (0.4 M N-ethyl-N′-(dimethylaminopropyl)carbodiimide) in equal amounts (50 μL) was prepared and allowed to flow at 5 μL/min for 40 sec to thus activate a CM5 sensor chip. When 150-200 RU appeared, TNF-α protein to be immobilized was mixed with sodium acetate (pH 4.0) and allowed to flow at […]. In order to evaluate whether or not the protein was immobilized, 50 mM NaOH was allowed to flow for 5 sec. At 80° C., RNA aptamers ATK001 and ATK007 were denatured for 5 min and then restored at room temperature for 15 min, thus preparing an analyte (RNA).
(§1) In order to determine kinetics, the flow rate was changed to 30 μL/min.
For orientation: In SPR one partner is held on a chip, and binding of the other changes the refractive index at the surface.

Another data set deals with ErbB2 (UniProt P04626 P04626:23-652). The data set is described as follows: SPR; specificity control; printed as about 104 nM, read as 10^4 nM (lost superscript). Particulars: tags: ThermoFisher. The protocol:
as §1
(§2) In order to evaluate the binding specificity of the RNA aptamer to TNF-α through SPR analysis in the same manner as in <Example 4> above, the binding capability to ErbB2 (ThermoFisher, USA) (Nucleic Acid Ther. 2011 June; 21(3):173-178), ErbB3 (ThermoFisher, USA) (Proc. Natl. Acad. Sci. USA. (2012), 109(33):13237-42) and IGF-BP1 (ThermoFisher, USA) (Insulin-like growth factor-binding protein 1) (Crit. Rev. Oncol. Hematol. (2008), 66(2):91-98), in addition to TNF-α, was quantified in Kd. The results are shown in [FIG. 5] (FIG. 5a illustrating the results of measurement of binding capability of ATK001, FIG. 5b illustrating the results of measurement of binding capability of ATK007, and FIG. 5c illustrating the results of measurement of binding capability of ATK001).

For another data set, the target named is ErbB3 (UniProt P21860 P21860:20-643). The description is as above. Particulars: tags: ThermoFisher. The protocol:
as §1, §2

T1 sequence (P01375 77-233, one chain of several): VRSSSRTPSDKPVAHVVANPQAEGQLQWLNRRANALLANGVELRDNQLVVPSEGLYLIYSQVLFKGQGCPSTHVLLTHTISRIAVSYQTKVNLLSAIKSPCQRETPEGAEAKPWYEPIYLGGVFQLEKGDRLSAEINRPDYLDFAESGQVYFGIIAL
Chain of ErbB3 (P21860 20-643, one chain of several): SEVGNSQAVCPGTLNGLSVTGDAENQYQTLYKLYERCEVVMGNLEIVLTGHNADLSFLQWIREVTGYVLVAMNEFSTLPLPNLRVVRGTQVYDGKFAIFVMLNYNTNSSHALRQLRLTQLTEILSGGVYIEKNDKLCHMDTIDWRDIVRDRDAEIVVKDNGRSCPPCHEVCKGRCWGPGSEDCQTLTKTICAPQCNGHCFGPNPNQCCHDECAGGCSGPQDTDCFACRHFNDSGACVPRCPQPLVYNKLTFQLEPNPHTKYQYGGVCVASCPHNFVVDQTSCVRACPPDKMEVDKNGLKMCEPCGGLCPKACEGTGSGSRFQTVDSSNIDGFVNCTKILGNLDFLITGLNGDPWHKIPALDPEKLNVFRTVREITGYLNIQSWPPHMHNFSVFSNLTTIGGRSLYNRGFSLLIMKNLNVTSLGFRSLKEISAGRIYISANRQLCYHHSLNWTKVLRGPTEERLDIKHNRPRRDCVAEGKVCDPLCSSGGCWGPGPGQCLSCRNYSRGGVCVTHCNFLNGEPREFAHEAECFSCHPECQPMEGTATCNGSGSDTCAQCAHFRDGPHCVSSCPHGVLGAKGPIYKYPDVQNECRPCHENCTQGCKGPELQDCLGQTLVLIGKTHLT

B1: ATK007 (ssRNA)
RNA: GCGGAAGCGUGCUGGGCCCGGCUUGCAGGUCGCCGAAAUGACCGCACACAUAACCCAGAGGUCGAU
modifications: 2'-F on all C and U
Turning to B1, the Kd with TNF-alpha [1] was about 0.005 µM; in the data set with TNF-alpha [2], 0.00529 µM; in the data set with ErbB2, about 10 µM; in the data set with ErbB3, about 10 µM.

B2: ATK001 (ssRNA)
RNA: GGGAGGACGAUGCGGCCACUGGCUAGGAACUCGAGUACUGGGUGGCAGACGACUCGCCCGA
modifications: 2'-F on all C and U
Consider B2, for which the Kd with TNF-alpha [2] is 0.00529 µM; with ErbB2 it was about 10 µM; with ErbB3, about 10 µM.
